Experimental findings from PMC2791223 are described below.

Assay in all cases: pull-down; partially purified recombinant proteins mixed and incubated overnight at 4°C, GSTrap columns, washed with 50 mM Tris pH 7.5, 150 mM NaCl, eluted with 10 mM reduced glutathione; Western blot with anti-His6 antibody, bands quantified with Image J, pulldown by GST-CD-Nef set to 100%
In general terms: Immunoblotting shows a protein as a band on a membrane.

For experiment [1], the target named is GST-MHC-I CD-Nef (human | HIV-1) (UniProt P03406).
For experiment [2], the target named is GST-CD(Y320A)-NefLL/AA (human | HIV-1) (UniProt P03406).
For experiment [3], the target named is GST-CD-Nef E62-65A,LL/AA (human | HIV-1) (UniProt P03406).
Experiment [4] concerns the target GST-CD-Nef M20A,LL/AA (human | HIV-1) (UniProt P03406).
Experiment [5] deals with GST-CD-Nef P78A,LL/AA (human | HIV-1) (UniProt P03406).
Experiment [6] concerns the target GST-MHC-I CD-Nef LL/AA (human | HIV-1) (UniProt P03406).

In the case of “truncated μ1 mutant V392A/L395A (domain or fragment)”, the pulldown efficiency (% of the pulldown of wild-type μ1 by GST-CD-Nef) in experiment [1] came out at 24%.

“truncated μ1 mutant F172A/D174S (domain or fragment)”: the pulldown efficiency (% of the pulldown of wild-type μ1 by GST-CD-Nef) in experiment [1] amounted to 57%.

B1: μ121 (AP-1 medium subunit μ1, residues 121–423) (domain or fragment)
chain: GYPQTTDSKILQEYITQEGHKLETGAPRPPATVTNAVSWRSEGIKYRKNEVFLDVIEAVNLLVSANGNVLRSEIVGSIKMRVFLSGMPELRLGLNDKVLFDNTGRGKSKSVELEDVKFHQCVRLSRFENDRTISFIPPDGEFELMSYRLNTHVKPLIWIESVIEKHSHSRIEYMVKAKSQFKRRSTANNVEIHIPVPNDADSPKFKTTVGSVKWVPENSEIVWSVKSFPGGKEYLMRAHFGLPSVEAEDKEGKPPISVKFEIPYFTTSGIQVRYLKIIEKSGYQALPWVRYITQNGDYQLRTQ
Consider B1, for which the pulldown efficiency (% of the pulldown of μ1 by GST-CD-Nef) came to 16% in experiment [2]; 30% in experiment [3]; 53% in experiment [4]; 19% in experiment [5]; 77% in experiment [6].
